Experimental data: paper PMC4604100, “Melanocortin agonists stimulate lipolysis in human adipose tissue explants but not in adipocytes” (BMC Research Notes, 2015)

Legend:
Conditions in all cases: modification not given
[1] = biological target: Melanocortin receptor 4 (Homo sapiens), P32245; test: competition
[2] = biological target: Melanocortin receptor 3 (Homo sapiens), P41968; test: competition
[3] = biological target: Melanocortin receptor 5 (Homo sapiens), P33032; test: competition
[4] = biological target: Melanocortin receptor 1 (Homo sapiens), Q01726; test: 125I-NDP-α-MSH competition binding (membrane filtration)
Chain of Melanocortin receptor 1 (Homo sapiens), Q01726 (Q01726 whole entry): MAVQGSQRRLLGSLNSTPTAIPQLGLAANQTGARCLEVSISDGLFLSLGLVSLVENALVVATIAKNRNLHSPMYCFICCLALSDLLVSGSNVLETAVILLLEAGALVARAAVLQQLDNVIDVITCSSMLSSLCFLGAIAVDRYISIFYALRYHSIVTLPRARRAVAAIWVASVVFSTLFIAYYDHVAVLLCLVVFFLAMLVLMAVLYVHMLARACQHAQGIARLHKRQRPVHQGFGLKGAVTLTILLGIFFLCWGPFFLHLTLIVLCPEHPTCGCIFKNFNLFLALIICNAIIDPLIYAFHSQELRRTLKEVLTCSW

Chain of Melanocortin receptor 3 (Homo sapiens), P41968 (P41968 whole entry): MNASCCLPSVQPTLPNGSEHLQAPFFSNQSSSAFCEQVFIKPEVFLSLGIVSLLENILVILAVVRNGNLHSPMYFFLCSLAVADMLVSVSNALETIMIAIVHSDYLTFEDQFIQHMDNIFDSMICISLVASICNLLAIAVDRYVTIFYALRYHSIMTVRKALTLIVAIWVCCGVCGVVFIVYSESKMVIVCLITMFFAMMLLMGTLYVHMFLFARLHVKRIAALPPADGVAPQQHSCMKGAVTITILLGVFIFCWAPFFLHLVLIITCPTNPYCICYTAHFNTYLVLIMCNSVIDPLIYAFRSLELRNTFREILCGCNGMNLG
Chain of Melanocortin receptor 5 (Homo sapiens), P33032 (P33032 whole entry): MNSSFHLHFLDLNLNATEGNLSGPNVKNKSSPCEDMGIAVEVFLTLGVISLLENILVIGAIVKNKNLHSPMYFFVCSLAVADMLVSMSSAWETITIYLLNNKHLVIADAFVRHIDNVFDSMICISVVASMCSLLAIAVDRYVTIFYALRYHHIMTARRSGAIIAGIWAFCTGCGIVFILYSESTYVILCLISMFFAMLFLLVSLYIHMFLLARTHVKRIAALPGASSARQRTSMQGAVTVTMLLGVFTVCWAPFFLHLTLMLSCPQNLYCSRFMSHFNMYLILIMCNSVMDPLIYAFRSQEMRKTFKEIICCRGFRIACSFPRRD
Chain of Melanocortin receptor 4 (Homo sapiens), P32245 (P32245 whole entry): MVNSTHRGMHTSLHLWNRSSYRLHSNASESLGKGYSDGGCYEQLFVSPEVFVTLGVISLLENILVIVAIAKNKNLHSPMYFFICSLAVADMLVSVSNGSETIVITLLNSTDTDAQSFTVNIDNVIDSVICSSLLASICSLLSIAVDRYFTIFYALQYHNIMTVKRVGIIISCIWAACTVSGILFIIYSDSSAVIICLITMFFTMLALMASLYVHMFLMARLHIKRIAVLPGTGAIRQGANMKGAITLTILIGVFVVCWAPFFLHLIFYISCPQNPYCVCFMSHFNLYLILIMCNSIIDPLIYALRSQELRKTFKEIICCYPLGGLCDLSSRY

- Ki [1]: 1.2 nM
- Ki [2]: 11.1 nM
- Ki [3]: 46 nM
- Ki [4]: 0.09 nM
Binder: SYSMEHFRWGKPVGKKRRPVKVYPNGAEDESAEAFPLEF [ACTH, P01189]
